{"source": "paper PMC11804868", "about": "(ACS catalysis, 2024)", "proteins": {"B1": {"name": "PikAIV TE wild type (thioesterase domain of the pikromycin polyketide synthase PikAIV) (domain or fragment, Streptomyces venezuelae ATCC 15439, UniProt Q9ZGI2 1057-1346, looked up)", "chain": "AGMFRALFRQAVEDDRYGEFLDVLAEASAFRPQFASPEACSERLDPVLLAGGPTDRAEGRAVLVGCTGTAANGGPHEFLRLSTSFQEERDFLAVPLPGYGTGTGTGTALLPADLDTALDAQARAILRAAGDAPVVLLGHSGGALLAHELAFRLERAHGAPPAGIVLVDPYPPGHQEPIEVWSRQLGEGLFAGELEPMSDARLLAMGRYARFLAGPRPGRSSAPVLLVRASEPLGDWQEERGDWRAHWDLPHTVADVPGDHFTMMRDHAPAVAEAVLSWLDAIEGIEGAGK"}}, "target": "the molecule itself", "assay": "SEC"}
{"protein": "B1", "values": [{"measurement": "stoichiometry N", "result": 2}]}
